Assay results published in patent publication US20220273789A1.
Where “and” joins values, the source holds several entries; their conditions need not be identical. Equal values may be shown once. Read-outs that look alike come from different tables or passages of the source.

What was measured:
human IgG (human) [1] = assay: BLI (Octet), gEgI on Ni-NTA sensor, hIgG in solution
human IgG (human) [2] = assay: BLI Octet, construct on Ni-NTA sensor, hIgG in solution
[3] = molecular target: Human IgG isotype control (ThermoFischer Scientific, ref 12000C) (human); assay: BLI, gEgI on Ni-NTA tips, hIgG in solution
human IgG (human) [4] = assay: BLI (Octet), gEgI on Ni-NTA sensor, hIgG in solution; remark: listed apart in the source

Row | Substance | Kd (human IgG (human) [1]) [nM] | Response (human IgG (human) [1]) [nm] | Kd (human IgG (human) [2]) [nM] | Response (nm) (human IgG (human) [2]) | koff (human IgG (human) [2]) [s⁻¹] | kon (human IgG (human) [2]) [M⁻¹ s⁻¹] | Kd [3] [nM] | Relative Affinity (%) compared to control construct HSV34 [3] [%] | koff [3] [s⁻¹] | kon [3] [M⁻¹ s⁻¹] | Kd (human IgG (human) [4]) | Response (human IgG (human) [4]) | koff (human IgG (human) [4]) | kon (human IgG (human) [4])
1 | HSV2-gE_H245A R320D_gI (from UniProt P89475 21-416; P06764 21-256) (receptor) | 6420 | 0.116 | 6420 | 0.116 | 0.00704 | 1100 |  |  |  |  |  |  |  | 
2 | HSV2-gE_R320E_gI (from UniProt P89475 21-416; P06764 21-256) (receptor) | 4950 | 0.223 | 4950 | 0.223 | 0.00455 | 919 |  |  |  |  |  |  |  | 
3 | HSV2-gE_A246W-R320D_gI (from UniProt P89475 21-416; P06764 21-256) (receptor) | 0.001 | 0.0712 |  |  |  |  |  |  |  |  |  |  |  | 
4 | HSV2-gE_A248T V340W_gI (from UniProt P89475 21-416; P06764 21-256) (receptor) | 0.001 | 0.0605 | < 0.001 | 0.0605 | < 1e-07 | 3020 |  |  |  |  |  |  |  | 
5 | HSV2-gE_A248T V340M_gI (from UniProt P89475 21-416; P06764 21-256) (receptor) | 0.001 | 0.108 | < 0.001 | 0.108 | < 1e-07 | 4440 |  |  |  |  |  |  |  | 
6 | HSV45 (HSV2- gE_P317R_gI) (from UniProt P89475 21-416; P06764 21-256) (receptor) |  |  |  |  |  |  | 1510 | 8 | 0.00347 | 2340 | 192 nM and 240 nM | 0.181 nm and 0.119 nm | 0.00137 s⁻¹ and 0.00156 s⁻¹ | 7110 M⁻¹ s⁻¹ and 6520 M⁻¹ s⁻¹
7 | HSV2-gE_A248T F322A_gI (from UniProt P89475 21-416; P06764 21-256) (receptor) | 7010 | 0.167 | 7010 | 0.167 | 0.00629 | 897 |  |  |  |  |  |  |  | 
8 | HSV2-gE_V340W_gI (from UniProt P89475 21-416; P06764 21-256) (receptor) | 0.001 | 0.0751 | < 0.001 | 0.0751 | < 1e-07 | 3520 |  |  |  |  |  |  |  | 
9 | HSV2-gE_V340D_gI (from UniProt P89475 21-416; P06764 21-256) (receptor) | 0.001 | 0.115 | < 0.001 | 0.115 | < 1e-07 | 5330 |  |  |  |  |  |  |  | 
10 | HSV2-gE_H245D_gI (from UniProt P89475 21-416; P06764 21-256) (receptor) | 17000 | 0.133 | 17000 | 0.133 | 0.00772 | 453 |  |  |  |  |  |  |  | 
11 | HSV2-gE_H245A R320G_gI (from UniProt P89475 21-416; P06764 21-256) (receptor) | 1410 | 0.192 | 1410 | 0.192 | 0.00589 | 4190 |  |  |  |  |  |  |  | 
12 | HSV2-gE_H245S R320T_gI (from UniProt P89475 21-416; P06764 21-256) (receptor) | 718 | 0.205 | 718 | 0.205 | 0.00503 | 7000 |  |  |  |  |  |  |  | 
13 | HSV2-gE_H245G R320D_gI (from UniProt P89475 21-416; P06764 21-256) (receptor) | 14200 | 0.0927 | 14200 | 0.0927 | 0.00667 | 469 |  |  |  |  |  |  |  | 
14 | HSV2-gE_H245S R320G_gI (from UniProt P89475 21-416; P06764 21-256) (receptor) | 745 | 0.196 | 745 | 0.196 | 0.0039 | 5240 |  |  |  |  |  |  |  | 
15 | HSV2-gE_H245A R320T_gI (from UniProt P89475 21-416; P06764 21-256) (receptor) | 1160 | 0.23 | 1160 | 0.23 | 0.00537 | 4620 |  |  |  |  |  |  |  | 
16 | HSV57 (HSV2- gE_P319D_gI) (from UniProt P89475 21-416; P06764 21-256) (receptor) |  |  |  |  |  |  | 9580 | 1 | 0.00403 | 362 |  |  |  | 
17 | HSV2-gE_P318I_gI (from UniProt P89475 21-416; P06764 21-256) (receptor) | 4440 | 0.163 | 4440 | 0.163 | 0.00752 | 1690 |  |  |  |  |  |  |  | 
18 | HSV44 (HSV2- gE_H245K_gI) (from UniProt P89475 21-416; P06764 21-256) (receptor) |  |  |  |  |  |  | 673 | 17 | 0.00628 | 9550 |  |  |  | 
19 | HSV34 (HSV2-gE_gI) (from UniProt P89475 21-416; P06764 21-256) (receptor) |  |  |  |  |  |  | 116 | 100 | 0.000541 | 3870 |  |  |  | 
20 | HSV51 (HSV2- gE_H245A-P319A_gI) (from UniProt P89475 21-416; P06764 21-256) (receptor) |  |  |  |  |  |  |  |  | < 1e-07 | 11000 |  |  |  | 

Row | Substance | Kd (human IgG (human) [1]) [nM] | Response (human IgG (human) [1]) [nm] | Kd (human IgG (human) [2]) [nM] | Response (nm) (human IgG (human) [2]) | koff (human IgG (human) [2]) [s⁻¹] | kon (human IgG (human) [2]) [M⁻¹ s⁻¹] | Kd [3] [nM] | Relative Affinity (%) compared to control construct HSV34 [3] [%] | koff [3] [s⁻¹] | kon [3] [M⁻¹ s⁻¹] | Kd (human IgG (human) [4]) | Response (human IgG (human) [4]) | koff (human IgG (human) [4]) | kon (human IgG (human) [4])
21 | HSV2-gE_A246W R320G_gI (from UniProt P89475 21-416; P06764 21-256) (receptor) | 0.001 | 0.0639 | < 0.001 | 0.0639 | < 1e-07 | 3430 |  |  |  |  |  |  |  | 
22 | HSV2-gE_A248K V340W_gI (from UniProt P89475 21-416; P06764 21-256) (receptor) | 0.001 | 0.0613 | < 0.001 | 0.0613 | < 1e-07 | 3780 |  |  |  |  |  |  |  | 
23 | HSV55 (HSV2- gE_H245A-P319T_gI) (from UniProt P89475 21-416; P06764 21-256) (receptor) |  |  |  |  |  |  | 201 | 58 | 0.00105 | 5330 |  |  |  | 
24 | HSV2-gE_H245G R320G_gI (from UniProt P89475 21-416; P06764 21-256) (receptor) | 777 | 0.225 | 777 | 0.225 | 0.00407 | 5240 |  |  |  |  |  |  |  | 
25 | HSV43 (HSV2- gE_H245A_gI) (from UniProt P89475 21-416; P06764 21-256) (receptor) |  |  |  |  |  |  |  |  | < 1e-07 | 9410 |  |  |  | 
26 | HSV2-gE_V340F_gI (from UniProt P89475 21-416; P06764 21-256) (receptor) | 0.001 | 0.114 | < 0.001 | 0.114 | < 1e-07 | 3140 |  |  |  |  |  |  |  | 
27 | HSV62 (HSV2- gE_N241A-R320D_gI) (from UniProt P89475 21-416; P06764 21-256) (receptor) |  |  |  |  |  |  | 4200 | 3 | 0.00129 | 317 |  |  |  | 
28 | HSV2-gE_P318R S338G_gI (from UniProt P89475 21-416; P06764 21-256) (receptor) | 0.001 |  |  |  |  |  |  |  |  |  | < 0.001 nM | 0.177 nm | < 1e-07 s⁻¹ | 8690 M⁻¹ s⁻¹
29 | HSV48 (HSV2- gE_P319G_gI) (from UniProt P89475 21-416; P06764 21-256) (receptor) |  |  |  |  |  |  | 700 | 17 | 0.00556 | 8130 |  |  |  | 
30 | HSV63 (HSV2- gE_N241A-P319D_gI) (from UniProt P89475 21-416; P06764 21-256) (receptor) |  |  |  |  |  |  |  |  | < 1e-07 | 3720 |  |  |  | 
31 | HSV42 (HSV2- gE_346_insert ADIT_gI) (from UniProt P89475 21-416; P06764 21-256) (receptor) |  |  |  |  |  |  |  |  | < 1e-07 | 5690 |  |  |  | 
32 | HSV2-gE_A246W_gI (from UniProt P89475 21-416; P06764 21-256) (receptor) | 6910 | 0.231 | 6910 | 0.231 | 0.00621 | 898 |  |  |  |  |  |  |  | 
33 | HSV49 (HSV2- gE_P319K_gI) (from UniProt P89475 21-416; P06764 21-256) (receptor) |  |  |  |  |  |  | 1710 | 7 | 0.00217 | 1340 |  |  |  | 
34 | HSV2-gE_H245S R320D_gI (from UniProt P89475 21-416; P06764 21-256) (receptor) | 1740 | 0.121 | 1740 | 0.121 | 0.00468 | 2690 |  |  |  |  |  |  |  | 
35 | HSV53 (HSV2- gE_H245A-P319G_gI) (from UniProt P89475 21-416; P06764 21-256) (receptor) |  |  |  |  |  |  | 807 | 14 | 0.00349 | 4480 |  |  |  | 
36 | HSV2-gE_A246W R320T_gI (from UniProt P89475 21-416; P06764 21-256) (receptor) | 0.001 | 0.0712 | < 0.001 | 0.0712 | < 1e-07 | 1510 |  |  |  |  |  |  |  | 
37 | HSV2-gE_H245E_gI (from UniProt P89475 21-416; P06764 21-256) (receptor) | 11900 | 0.168 | 11900 | 0.168 | 0.00705 | 595 |  |  |  |  |  |  |  | 
38 | HSV2-gE_A248G V340W_gI (from UniProt P89475 21-416; P06764 21-256) (receptor) | 39200 | 0.0826 | 39200 | 0.0826 | 0.0107 | 273 |  |  |  |  |  |  |  | 
39 | HSV2-gE_A248T_gI (from UniProt P89475 21-416; P06764 21-256) (receptor) | 12200 | 0.123 | 12200 | 0.123 | 0.00574 | 470 |  |  |  |  |  |  |  | 
40 | HSV56 (HSV2- gE_A337G_gI) (from UniProt P89475 21-416; P06764 21-256) (receptor) |  |  |  |  |  |  | 98.9 | 117 | 0.00082 | 8430 |  |  |  | 
